From patent publication US20190153089A1 (NUMAB INNOVATION, published 2019)
Changes are numbered by the printed parent chain.

B1: humanized scFv 17-21-A01-sc01 (CDR graft) (scFv)
scFv: MDIQMTQSPSSLSASVGDRVTITCQASESIGNALAWYQQKPGKAPKLLIYSASTLASGVPSRFSGSGSGTDFTLTISSLQPEDFATYYCQSYYYSSSGSYVAFGGGTKLTVLGGGGGSGGGGSGGGGSGGGGSEVQLVESGGGLVQPGGSLRLSCAASGIDFNKYYFMCWVRQAPGKGLEWIGCINTGSGSTYYATWAKGRFTISRDNSKNTVYLQMNSLRAEDTAVYYCARASGSSSVVYIGVYFSLWGQGTLVTVSS
B2: humanized scFv 17-21-A01-sc03 (CDR graft with disulfide bridge, CDR/DS) (scFv)
scFv: B1 scFv with G105C, G178C
notes: A disulfide bridge was introduced between residues VL141-VH51; also called 17-21-A01-sc03 (CDR/DS)
B3: recombinant human TNFβ (Peprotech, Cat. No. 300-01B) (ligand, UniProt P01374 35-205, looked up)
chain: LPGVGLTPSAAQTARQHPKMHLAHSTLKPAAHLIGDPSKQNSLLWRANTDRAFLQDGFSLSNNSLLVPTSGIYFVYSQVVFSGKAYSPKATSSPLYLAHEVQLFSSQYPFHVPLLSSQKMVYPGLQEPWLHSMYHGAAFQLTQGDQLSTHTDGIPHLVLSPSTVFFGAFAL

Legend:
[1] = biological target: T1, recombinant Cynomolgus monkey TNFα (Sino Biological, Cat. No. 90018-CNAE) (Cynomolgus monkey (Macaca fascicularis), UniProt P79337 77-233); experiment: SPR
T1 construct: also called Cyno TNFα; Cynomolgus TNFα
T1 sequence (P79337 77-233 limits assumed): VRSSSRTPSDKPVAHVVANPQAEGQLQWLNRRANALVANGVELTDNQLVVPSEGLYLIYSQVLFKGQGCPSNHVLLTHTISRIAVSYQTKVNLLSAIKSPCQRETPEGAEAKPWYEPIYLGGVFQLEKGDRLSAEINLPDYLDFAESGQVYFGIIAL
Procedure: (§1) In a second step, for the best performing scFvs, Single Injection Cycle Kinetics (SiCK) were measured from a single injection cycle by simultaneously injecting six analyte samples at different concentrations into each of the eight parallel channels in the MASS-1 system. […] The apparent dissociation (kd) and association (kₐ) rate constants and the apparent dissociation equilibrium constant (KD) were calculated with the MASS-1 analysis software (Analyzer, Sierra Sensors) using one-to-one Langmuir binding model and quality of the fits was monitored based on Chi², which is a measure for the quality of the curve fitting. The smaller the value for the Chi² the more accurate is the fitting to the one-to-one Langmuir binding model. For affinity screenings, results were deemed valid if the Chi² was below 10 for the concentration analyzed. In cases where several scFv concentrations were analyzed, results were deemed valid if the average Chi² over all the concentrations tested was below 10.

[2] = biological target: T2, Rhesus monkey TNFα (R&D Systems, Cat. No. 1070-RM-025/CF) (Rhesus monkey (Macaca mulatta), UniProt P48094 77-233); experiment: SPR
T2 construct: also called Rhesus TNFα; Macaca mulatta TNFα
T2 sequence (P48094 77-233 limits assumed): as the sequence (P79337 77-233 limits assumed) above, with V37L counted along it
Procedure: as §1

[3] = biological target: T3, recombinant human TNFα (Peprotech, Cat. No. 300-01) (human, UniProt P01375 77-233, biotinylated in the inhibition and competition ELISAs; unlabelled elsewhere); experiment: cell-based or functional assay
T3 sequence (P01375 77-233 limits assumed): as the sequence (P79337 77-233 limits assumed) above, with V37L, T44R, N72T, L138R counted along it

[4] = biological target: T1, recombinant Cynomolgus monkey TNFα …; experiment: cell-based or functional assay
[5] = biological target: T2, Rhesus monkey TNFα (R&D Systems, Cat. …); experiment: cell-based or functional assay
[6] = biological target: T3, recombinant human TNFα (Peprotech, Cat. …); experiment: SPR (MASS-1), TNFα immobilized, scFv 45-1.4 nM
Procedure: as §1

[7] = biological target: T1, recombinant Cynomolgus monkey TNFα …; experiment: SPR (MASS-1), TNFα immobilized, scFv 45-1.4 nM
Procedure: as §1

[8] = biological target: T2, Rhesus monkey TNFα (R&D Systems, Cat. …); experiment: SPR (MASS-1), TNFα immobilized, scFv 45-1.4 nM
Procedure: as §1

[9] = biological target: B3; experiment: competition ELISA: unlabeled TNFβ against biotinylated TNFα on coated scFv
Procedure: (§2) For this purpose, the scFvs were coated on a 96-well Maxisorp ELISA plate at a concentration of […]. […] To control precision of the response, the dose-response curves were analyzed in duplicate.

[10] = biological target: T3, recombinant human TNFα (Peprotech, Cat. …); experiment: inhibition ELISA, biotinylated TNFα (960 pM) preincubated with scFv, binding to coated TNFRI-Fc
Excerpt: (§3) For the first inhibition ELISA, the extracellular domain of TNFRI fused to the Fc region of human IgG (R&D Systems, Cat. No. 372-RI) was coated on a 96-well Maxisorp ELISA at a concentration of […]. For the second inhibition ELISA, the extracellular domain of TNFRII fused to the Fc region of human IgG (R&D Systems, Cat. No. 726-R2) was coated at a concentration of […]. All subsequent steps were identical for both assays.

[11] = biological target: T3, recombinant human TNFα (Peprotech, Cat. …); experiment: inhibition ELISA, biotinylated TNFα (960 pM) preincubated with scFv, binding to coated TNFRII-Fc
Excerpt: as §3

[12] = biological target: B1; experiment: competition ELISA: unlabeled TNFβ or TNFα against biotinylated TNFα on coated scFv
Procedure: as §2

[13] = biological target: B2; experiment: as above
Procedure: as §2

[14] = biological target: B1; experiment: competition ELISA: unlabeled TNFβ against biotinylated TNFα on coated scFv; scFv 17-21-A01-sc01
Procedure: as §2

[15] = biological target: B2; experiment: competition ELISA: unlabeled TNFβ against biotinylated TNFα on coated scFv; scFv 17-21-A01-sc03
Procedure: as §2

Row | Binder | Potency, rel. IC50 in L929 assay (IC50 infliximab / IC50 scFv, ng/mL) [3] [fold] | Potency, rel. IC90 in L929 assay (IC90 infliximab / IC90 scFv, ng/mL) [3] [fold] | Species-specificity IC50, L929 assay with human TNFα [3] [µg/mL] | Species-specificity IC50, L929 assay with Cynomolgus TNFα [4] [µg/mL] | Species-specificity IC50, L929 assay with Rhesus TNFα [5] [µg/mL] | Kd [6] [nM] | koff [6] [s⁻¹] | kon [6] [M⁻¹ s⁻¹] | binding result [9] | IC50 [10] [µg/mL] | rel. IC50 (IC50 infliximab / IC50 scFv, ng/mL) [10] [fold] | rel. IC90 (IC90 infliximab / IC90 scFv, ng/mL) [10] [fold] | IC50 [11] [µg/mL] | rel. IC50 (IC50 infliximab / IC50 scFv, ng/mL) [11] [fold] | rel. IC90 (IC90 infliximab / IC90 scFv, ng/mL) [11] [fold] | further results
1 | B1 | 9.2 | 12.2 | 0.0014 | 0.193 | 0.111 | 0.21 | 0.00014 | 660000 | no binding (tested: 1250 µg/mL) | 0.0316 | 2.9 | 2 | 0.0541 | 2.2 | 0.8 | fold difference in affinity against human TNFα [1]: ~5 fold; fold difference in affinity against human TNFα [2]: ~5 fold; Kd [7]: 2.4 nM; koff [7]: 0.0016 s⁻¹; kon [7]: 650000 M⁻¹ s⁻¹; Kd [8]: 2.5 nM; koff [8]: 0.0019 s⁻¹; kon [8]: 760000 M⁻¹ s⁻¹
2 | B2 | 6.5 | 6.4 | 0.0012 | 0.0506 | 0.0542 | 0.27 | 0.00011 | 400000 | no binding (tested: 1250 µg/mL) | 0.0502 | 1.8 | 1.8 | 0.0467 | 2.6 | 0.8 | 
3 | B3 |  |  |  |  |  |  |  |  |  |  |  |  |  |  |  | Target selectivity, rel. IC50 of TNFβ vs TNFα [12]: > 10000 fold; Target selectivity, rel. IC50 of TNFβ vs TNFα [13]: > 10000 fold; IC50 [14]: > 1250 µg/mL; IC50 [15]: > 1250 µg/mL
